What was measured:
COS-A2-SSX-2 cells = experiment: Proliferation ([3H]-thymidine) on co-culture with COS-A2-SSX-2 cells; type: cell-based; details: PBL from Donor 1 or Donor 2; FIGS. 6A, 6B
Experimental: PBLs from Donor 1 or Donor 2 that were untransduced (UT) or transduced with a vector comprising SEQ ID NO: 27 (SSX-2 TCR), SEQ ID NO: 29 (codon-optimized SSX-2 TCR), or SEQ ID NO: 30 (codon-optimized SSX-2 TCR including mouse constant region) were co-cultured with COS-A2-SSX-2 cells. Proliferation in terms of [^3H]-thymidine incorporation (CPM) was measured and is shown in FIG. 6A (Donor 1) and 6B (Donor 2).

Lau 149 mel = experiment: IFN-γ release, co-culture with Lau 149 mel; type: cell-based; details: co-cultured with Lau 149 mel
Text: (§1) PBLs that were untransduced (UT) or transduced with a vector comprising SEQ ID NO: 27 (SSX-2 TCR), SEQ ID NO: 29 (codon-optimized SSX-2 TCR), or SEQ ID NO: 30 (codon-optimized SSX-2 TCR including mouse constant region) were co-cultured with various tumor cell lines. Tables 5 and 6 show the resulting interferon-γ levels (pg/ml) measured with respect to PBL from two different donors.

SK MEL37 = experiment: IFN-γ release, co-culture with SK MEL37 melanoma; type: cell-based
Text: as §1, with “SSX-2 TCR-transduced PBLs were co-cultured with various tumor cell lines. […] FIGS. 4A and 4B, FIG. 11, and Tables 3 and 4 show additional results of PBLs from human donors that were transduced with the SSX-2 TCR of Example 2 when these PBLs were co-cultured with various tumor cells. PBLs” for “PBLs”

938-A2 mel = experiment: IFN-γ release, co-culture with 938-A2 melanoma; type: cell-based; details: co-cultured with 938-A2 mel
Text: as §1, with “SSX-2 TCR-transduced PBLs were co-cultured with various tumor cell lines. […] FIGS. 4A and 4B, FIG. 11, and Tables 3 and 4 show additional results of PBLs from human donors that were transduced with the SSX-2 TCR of Example 2 when these PBLs were co-cultured with various tumor cells. PBLs” for “PBLs”

938 mel = experiment: IFN-γ release, co-culture with 938; type: cell-based; details: co-cultured with 938 mel
Text: as §1, with “SSX-2 TCR-transduced PBLs were co-cultured with various tumor cell lines. […] FIGS. 4A and 4B, FIG. 11, and Tables 3 and 4 show additional results of PBLs from human donors that were transduced with the SSX-2 TCR of Example 2 when these PBLs were co-cultured with various tumor cells. PBLs” for “PBLs”

K562 = experiment: IFN-γ release, co-culture with K562; type: cell-based; details: co-cultured with K562
Text: as §1

1300 mel = experiment: IFN-γ release, co-culture with 1300 mel; type: cell-based; details: co-cultured with 1300 mel
Text: as §1

[1] = test system: SSX-2+/HLA-A2+ target cells; experiment: Percent lysis of target cells; type: cell-based; details: FIGS. 7A-D and 8A-D, various E:T ratios
624 mel = experiment: IFN-γ release, co-culture with 624 melanoma; type: cell-based; details: co-cultured with 624 mel
Text: as §1, with “SSX-2 TCR-transduced PBLs were co-cultured with various tumor cell lines. […] FIGS. 4A and 4B, FIG. 11, and Tables 3 and 4 show additional results of PBLs from human donors that were transduced with the SSX-2 TCR of Example 2 when these PBLs were co-cultured with various tumor cells. PBLs” for “PBLs”

COS-A2 = experiment: IFN-γ release, TCR-transduced PBL co-cultured with COS-A2; type: cell-based; details: co-cultured with Cos-A2
Text: as §1, with “SSX-2 TCR-transduced PBLs were co-cultured with various tumor cell lines. […] FIGS. 4A and 4B, FIG. 11, and Tables 3 and 4 show additional results of PBLs from human donors that were transduced with the SSX-2 TCR of Example 2 when these PBLs were co-cultured with various tumor cells. PBLs” for “PBLs”

K562-A2-Erythroleukemia = experiment: IFN-γ release, co-culture with K562-A2 erythroleukemia; type: cell-based; details: co-cultured with K562-A2-Erythroleukemia
Text: as §1

U251 Glioma = experiment: IFN-γ release, co-culture with U251 glioma; type: cell-based; details: co-cultured with U251 Glioma
Text: as §1, with “SSX-2 TCR-transduced PBLs were co-cultured with various tumor cell lines. […] FIGS. 4A and 4B, FIG. 11, and Tables 3 and 4 show additional results of PBLs from human donors that were transduced with the SSX-2 TCR of Example 2 when these PBLs were co-cultured with various tumor cells. PBLs” for “PBLs”

T331A mel = experiment: IFN-γ release, co-culture with T331A; type: cell-based; details: co-cultured with T331A mel
Text: as §1, with “SSX-2 TCR-transduced PBLs were co-cultured with various tumor cell lines. […] FIGS. 4A and 4B, FIG. 11, and Tables 3 and 4 show additional results of PBLs from human donors that were transduced with the SSX-2 TCR of Example 2 when these PBLs were co-cultured with various tumor cells. PBLs” for “PBLs”

COS-A2-SSX2 cells = experiment: CD137 (4-1BB) upregulation after co-culture with COS-A2-SSX2 cells; type: cell-based; details: FACS after co-culture with COS-A2-SSX2 cells
[2] = IFN-γ release, transduced PBL without target cells (medium / T cell alone); type: cell-based, human; details: T cell alone
Text: as §1, with “SSX-2 TCR-transduced PBLs were co-cultured with various tumor cell lines. […] FIGS. 4A and 4B, FIG. 11, and Tables 3 and 4 show additional results of PBLs from human donors that were transduced with the SSX-2 TCR of Example 2 when these PBLs were co-cultured with various tumor cells. PBLs” for “PBLs”

[3] = test system: SSX2+/HLA-A2+ target cells; experiment: Proliferation ([3H]-thymidine) on co-culture with tumor cells; type: cell-based; details: 1300 mel, 624 mel, 888 mel, SK mel 37 or COS-A2-SSX-2 cells; FIGS. 9A-9E
Text: In another experiment, PBLs transduced as described in this example were co-cultured with 1300 mel cells, 624 mel cells, 888 mel cells, SK mel 37 cells, or COS-A2-SSX-2 cells.

293-A2 = experiment: IFN-γ release, co-culture with 293-A2; type: cell-based; details: co-cultured with 293-A2
Text: as §1, with “SSX-2 TCR-transduced PBLs were co-cultured with various tumor cell lines. […] FIGS. 4A and 4B, FIG. 11, and Tables 3 and 4 show additional results of PBLs from human donors that were transduced with the SSX-2 TCR of Example 2 when these PBLs were co-cultured with various tumor cells. PBLs” for “PBLs”

SKOV3 Ovarian = experiment: IFN-γ release, co-culture with SKOV3 ovarian; type: cell-based; details: co-cultured with SKOV3 Ovarian
Text: as §1, with “SSX-2 TCR-transduced PBLs were co-cultured with various tumor cell lines. […] FIGS. 4A and 4B, FIG. 11, and Tables 3 and 4 show additional results of PBLs from human donors that were transduced with the SSX-2 TCR of Example 2 when these PBLs were co-cultured with various tumor cells. PBLs” for “PBLs”

293-A2 SSX2 = experiment: IFN-γ release, co-culture with 293-A2 SSX2; type: cell-based; details: co-cultured with 293-A2-SSX2
Text: as §1, with “SSX-2 TCR-transduced PBLs were co-cultured with various tumor cell lines. […] FIGS. 4A and 4B, FIG. 11, and Tables 3 and 4 show additional results of PBLs from human donors that were transduced with the SSX-2 TCR of Example 2 when these PBLs were co-cultured with various tumor cells. PBLs” for “PBLs”

COS-A2 SSX2 = experiment: IFN-γ release, co-culture with COS-A2 SSX2; type: cell-based; details: co-cultured with COS-A2-SSX2
Text: as §1, with “SSX-2 TCR-transduced PBLs were co-cultured with various tumor cell lines. […] FIGS. 4A and 4B, FIG. 11, and Tables 3 and 4 show additional results of PBLs from human donors that were transduced with the SSX-2 TCR of Example 2 when these PBLs were co-cultured with various tumor cells. PBLs” for “PBLs”

B1: SSX2-TCR-Co Op: codon-optimized anti-SSX-2 TCR alpha and beta chains encoded by SEQ ID NO: 29, tested as transduced human PBLs (protein)
chain: MALSSLLKVVTASLWLGPGIAQKITQTQPGMFVQEKEAVTLDCTYDTSDPSYGLFWYKQPSSGEMIFLIYQGSYDQQNATEGRYSLNFQKARKSANLVISASQLGDSAMYFCAMTSGFGNEKLTFGTGTRLTIIPNIQNPDPAVYQLRDSKSSDKSVCLFTDFDSQTNVSQSKDSDVYITDKTVLDMRSMDFKSNSAVAWSNKSDFACANAFNNSIIPEDTFFPSPESSCDVKLVEKSFETDTNLNFQNLSVIGFRILLLKVAGFNLLMTLRLWSSRAKRSGSGATNFSLLKQAGDVEENPGPMGPGLLHWMALCLLGTGHGDAMVIQNPRYQVTQFGKPVTLSCSQTLNHNVMYWYQQKSSQAPKLLFHYYDKDFNNEADTPDNFQSRRPNTSFCFLDIRSPGLGDAAMYLCATSRGQGGQPQHFGDGTRLSILEDLNKVFPPEVAVFEPSEAEISHTQKATLVCLATGFFPDHVELSWWVNGKEVHSGVSTDPQPLKEQPALNDSRYCLSSRLRVSATFWQNPRNHFRCQVQFYGLSENDEWTQDRAKPVTQIVSAEAWGRADCGFTSVSYQQGVLSATILYEILLGKATLYAVLVSALVLMAMVKRKDF
COS-A2-SSX-2 cells
  proliferation ([3H]-thymidine incorporation): proliferate in response to co-culture with COS-A2-SSX-2 cells
Lau 149 mel; Table 5 donor
  interferon-γ levels: 193 pg/mL
Lau 149 mel; Table 6 donor
  interferon-γ levels: 120 pg/mL
SK MEL37; Table 5 donor, co-cultured with Skmel 37 mel
  interferon-γ levels: 8869 pg/mL
SK MEL37; Table 6 donor, co-cultured with Skmel 37
  interferon-γ levels: 11445 pg/mL
938-A2 mel; Table 5 donor
  interferon-γ levels: 46304 pg/mL
938-A2 mel; Table 6 donor
  interferon-γ levels: 51173 pg/mL
938 mel; Table 5 donor
  interferon-γ levels: 890 pg/mL
938 mel; Table 6 donor
  interferon-γ levels: 768 pg/mL
K562; Table 5 donor
  interferon-γ levels: 1714 pg/mL
K562; Table 6 donor
  interferon-γ levels: 2784 pg/mL
1300 mel; Table 5 donor
  interferon-γ levels: 2596 pg/mL
1300 mel; Table 6 donor
  interferon-γ levels: 3052 pg/mL
[1]
  lytic activity (percent lysis): specific lytic activity against SSX-2^+/HLA-A2^+ target cells
624 mel; Table 5 donor
  interferon-γ levels: 37547 pg/mL
624 mel; Table 6 donor
  interferon-γ levels: 47059 pg/mL
COS-A2; Table 5 donor
  interferon-γ levels: 2338 pg/mL
COS-A2; Table 6 donor
  interferon-γ levels: 601 pg/mL
K562-A2-Erythroleukemia; Table 5 donor
  interferon-γ levels: 21325 pg/mL
K562-A2-Erythroleukemia; Table 6 donor
  interferon-γ levels: 13610 pg/mL
U251 Glioma; Table 5 donor
  interferon-γ levels: 19223 pg/mL
U251 Glioma; Table 6 donor
  interferon-γ levels: 21418 pg/mL
T331A mel; Table 5 donor
  interferon-γ levels: 30 pg/mL
T331A mel; Table 6 donor
  interferon-γ levels: 30 pg/mL
COS-A2-SSX2 cells
  activation marker CD137 (4-1BB): upregulated
[2]; Table 5 donor
  interferon-γ levels: 164 pg/mL
[2]; Table 6 donor
  interferon-γ levels: 290 pg/mL
[3]
  proliferation ([3H]-thymidine incorporation): proliferate in response to co-culture with SSX2+/HLA-A2+ target cells
293-A2; Table 5 donor
  interferon-γ levels: 711 pg/mL
293-A2; Table 6 donor
  interferon-γ levels: 1067 pg/mL
SKOV3 Ovarian; Table 5 donor
  interferon-γ levels: 2527 pg/mL
SKOV3 Ovarian; Table 6 donor
  interferon-γ levels: 22509 pg/mL
293-A2 SSX2; Table 5 donor
  interferon-γ levels: 37522 pg/mL
293-A2 SSX2; Table 6 donor
  interferon-γ levels: 49112 pg/mL
COS-A2 SSX2; Table 5 donor
  interferon-γ levels: 64142 pg/mL
COS-A2 SSX2; Table 6 donor
  interferon-γ levels: 138324 pg/mL

From patent US10864252B2, “Anti-SSX-2 T cell receptors and related materials and methods of use” (The United States of America, as represented by the …, priority 2010, dated 2020)
